Data on 26 molecules can be found in patent US20240327534A1 (HARPOON THERAPEUTICS, published 2024).

Residue numbers refer to the chain shown, from its start. Names may count otherwise.

Sequences and labels used below:
T1: human BCMA on BCMA expressing cell lines (human, UniProt Q02223 1-184)
T1 sequence: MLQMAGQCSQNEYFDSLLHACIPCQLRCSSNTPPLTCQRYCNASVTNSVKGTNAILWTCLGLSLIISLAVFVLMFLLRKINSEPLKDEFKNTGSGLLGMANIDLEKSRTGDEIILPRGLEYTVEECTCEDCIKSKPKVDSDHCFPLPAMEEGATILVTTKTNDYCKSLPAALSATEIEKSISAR

T2: human BCMA protein (human, UniProt Q02223 1-54, limits assumed)
T2 sequence: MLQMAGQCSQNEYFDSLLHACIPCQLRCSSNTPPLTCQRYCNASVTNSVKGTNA

B1: BCMA targeting trispecific protein 02G02 (other)
VHH: EVQLVESGGGLVQPGRSLTLSCAASTNIFSITPMGWYRQAPGKQRELVAAIHGASTLYADSVKGRFTISRDNAKNSIYLQMNSLRPEDTALYYCNKVPWGDYHPGNVYWGQGTQVTVSS
notes: trispecific; also called 02G02 TriTAC; not shown: anti-albumin domain, anti-CD3 domain and the linkers of the trispecific (TriTAC) format
B2: BCMA targeting trispecific protein 02G09 (other)
VHH: B1 VHH with I31D, T32S, A54F, G105R, Y108A
notes: trispecific; not shown: The C-terminal 6xHis tag is left out because it follows these missing domains
B3: BCMA targeting trispecific protein 02E05 (other)
VHH: B1 VHH with I31R, T32S, A54I
notes: trispecific; also called 02E05 TriTAC; not shown: the C-terminal 6xHis tag follows those domains and is left out
B4: BCMA targeting trispecific protein 02G11 (other, not shown: large carriers; small tags and cut ends)
VHH: B1 VHH with F29D, T32S, A54S, G105R, Y108T
notes: trispecific
B5: BCMA targeting trispecific protein 02G05 (other, not shown: large carriers; small tags and cut ends)
VHH: B1 VHH with F29T, T32S, A54N
notes: trispecific
B6: BCMA targeting trispecific protein 02F02 (other)
VHH: B1 VHH with I31K, T32S, A54S
notes: trispecific; also called 02F02 TriTAC; not shown: The C-terminal 6xHis tag is left out because it follows these missing domains
B7: BCMA targeting trispecific protein 02E06 (other, not shown: large carriers; small tags and cut ends)
VHH: B1 VHH with I31D, T32S, A54F, L57F
notes: trispecific; also called 02E06 TriTAC
B8: BCMA targeting trispecific protein 02G08 (other, not shown: large carriers; small tags and cut ends)
VHH: B1 VHH with F29D, T32S, A54E, G105R, Y108T
notes: trispecific
B9: BCMA targeting trispecific protein 02H06 (other)
VHH: B1 VHH with F29R, T32S, A54S, G105R, Y108V
notes: as for B2
B10: BCMA targeting trispecific protein 02H01 (other, not shown: large carriers; small tags and cut ends)
VHH: B1 VHH with I31K, T32S, A54S, G105R
notes: trispecific
B11: BCMA targeting trispecific protein 02H05 (other)
VHH: B1 VHH with I28Q, T32S, A54K, G105R, Y108V
notes: as for B2
B12: BCMA targeting trispecific protein 02B06 (other, not shown: large carriers; small tags and cut ends)
VHH: B1 VHH with I31N, T32S, A54F
notes: trispecific; also called 02B06 TriTAC
B13: BCMA targeting trispecific protein 01H08 (other)
VHH: B1 VHH with F29M, T32S, A54F, L57V
notes: trispecific; also called 01H08 TriTAC; not shown: the C-terminal His6 follows those missing domains and is left out
B14: BCMA targeting trispecific protein 02H09 (other, not shown: large carriers; small tags and cut ends)
VHH: B1 VHH with I31R, T32S, A54S
notes: trispecific
B15: BCMA targeting trispecific protein 02G06 (other, not shown: large carriers; small tags and cut ends)
VHH: B1 VHH with I31G, T32S, A54N
notes: trispecific
B16: BCMA targeting trispecific protein 01G08 (other, not shown: large carriers; small tags and cut ends)
VHH: B1 VHH with F29Q, T32S, A54F, S55E
notes: trispecific; also called 01G08 TriTAC
B17: BCMA targeting trispecific protein 02F04 (other, not shown: large carriers; small tags and cut ends)
VHH: B1 VHH with I31S, T32S, A54F
notes: trispecific; also called 02F04 TriTAC
B18: BCMA targeting trispecific protein 02H11 (other)
VHH: B1 VHH with F29T, T32S, A54E, G105R
notes: trispecific; not shown: the C-terminal 6xHis tag follows those domains and is left out
B19: BCMA targeting trispecific protein 02H04 (other)
VHH: B1 VHH with I31V, T32S, A54N, G105R
notes: as for B18
B20: BCMA targeting trispecific protein 02G07 (other, not shown: large carriers; small tags and cut ends)
VHH: B1 VHH with A54E, G105R, N106D
notes: trispecific
B21: BCMA targeting trispecific protein 01F07 (other, not shown: large carriers; small tags and cut ends)
VHH: B1 VHH with I31T, T32S, A54F, L57I
notes: trispecific; also called 01F07 TriTAC
B22: 01F07-M34G TriTAC (other, not shown: large carriers; small tags and cut ends)
VHH: B1 VHH with I31T, T32S, M34G, A54F, L57I
notes: trispecific; also called 01F01-M34G
B23: 02G02-M34Y TriTAC (other, not shown: large carriers; small tags and cut ends)
VHH: B1 VHH with M34Y
notes: trispecific
B24: 01F07-M34Y TriTAC (other)
VHH: B1 VHH with I31T, T32S, M34Y, A54F, L57I
notes: trispecific; not shown: anti-albumin domain, anti-CD3 domain and the linkers of the TriTAC; the C-terminal His6 that follows them is left out
B25: 02G02-M34G TriTAC (other, not shown: large carriers; small tags and cut ends)
VHH: B1 VHH with M34G
notes: trispecific
B26: BH2T TriTAC (protein, part only; not given: anti-albumin and anti-CD3 domains, part only)
chain, part: EVQLVESGGGLVQPGRSLTLSCAASTNIFSISPMGWYRQAPGKQRELVAAIHGFSTLYADSVKGRFTISRDNAKNSIYLQMNSLRPEDTALYYCNKVPWGDYHPRNVYWGQGTQVTVSSHHHHHH

For one assay, the target named is T1, human BCMA on BCMA expressing cell lines. Description: cell-based or functional assay.
As for B1, the “TDCC EC50 (EJM cells)” value turned out to be 0.00108 nM.

Turning to B2, the “TDCC EC50 (EJM cells)” value stood at 0.0396 nM.

For B3, the “TDCC EC50 (EJM cells)” value came out at 0.00137 nM.

As for B4, the “TDCC EC50 (EJM cells)” value was found to be 0.0238 nM.

On to B5, for which the “TDCC EC50 (EJM cells)” value came out at 0.00433 nM.

As to B6, the “TDCC EC50 (EJM cells)” value stood at 0.00136 nM.

On to B7, for which the “TDCC EC50 (EJM cells)” value is 0.00157 nM.

For the molecule B8, the “TDCC EC50 (EJM cells)” value worked out at 0.0286 nM.

On to B9, for which the “TDCC EC50 (EJM cells)” value was 0.0319 nM.

On to B10, for which the “TDCC EC50 (EJM cells)” value came out at 0.0542 nM.

On to B11, for which the “TDCC EC50 (EJM cells)” value worked out at 0.0389 nM.

Turning to B12, the “TDCC EC50 (EJM cells)” value is 0.00165 nM.

B13: the “TDCC EC50 (EJM cells)” value was 0.000341 nM.

On to B14, for which the “TDCC EC50 (EJM cells)” value was 0.00288 nM.

With B15, the “TDCC EC50 (EJM cells)” value turned out to be 0.00339 nM.

Regarding B16, the “TDCC EC50 (EJM cells)” value stood at 0.00191 nM.

As for B17, the “TDCC EC50 (EJM cells)” value came to 0.00172 nM.

Regarding B18, the “TDCC EC50 (EJM cells)” value is 0.0775 nM.

B19: the “TDCC EC50 (EJM cells)” value came out at 0.0599 nM.

With B20, the “TDCC EC50 (EJM cells)” value is 0.0446 nM.

Regarding B21, the “TDCC EC50 (EJM cells)” value came out at 0.000702 nM.

For a further assay the target is unchanged. Description: cell-based or functional assay. This is another data set of the same source.
Take B22: the “TDCC Jeko1 EC50” value came out at 0.009 nM, the “TDCC MOLP-8 EC50” value is 0.0022 nM and the “TDCC OPM-2 EC50” value is 0.0056 nM.

For the molecule B1, the “TDCC Jeko1 EC50” value is 0.011 nM, the “TDCC MOLP-8 EC50” value came out at 0.0028 nM and the “TDCC OPM-2 EC50” value was determined as 0.0066 nM.

With B3, the “TDCC Jeko1 EC50” value stood at 0.011 nM, the “TDCC MOLP-8 EC50” value is 0.0033 nM and the “TDCC OPM-2 EC50” value is 0.012 nM.

As for B6, the “TDCC Jeko1 EC50” value is 0.0082 nM, the “TDCC MOLP-8 EC50” value is 0.0035 nM and the “TDCC OPM-2 EC50” value turned out to be 0.01 nM.

As to B7, the “TDCC Jeko1 EC50” value came out at 0.0091 nM, the “TDCC MOLP-8 EC50” value was determined as 0.0024 nM and the “TDCC OPM-2 EC50” value amounted to 0.0074 nM.

Take B12: the “TDCC Jeko1 EC50” value turned out to be 0.011 nM, the “TDCC MOLP-8 EC50” value was determined as 0.0028 nM and the “TDCC OPM-2 EC50” value turned out to be 0.0097 nM.

Consider B13, for which the “TDCC Jeko1 EC50” value turned out to be 0.004 nM, the “TDCC MOLP-8 EC50” value was found to be 0.00094 nM and the “TDCC OPM-2 EC50” value is 0.0031 nM.

For B23, the “TDCC Jeko1 EC50” value is 0.011 nM, the “TDCC MOLP-8 EC50” value is 0.0056 nM and the “TDCC OPM-2 EC50” value was 0.0062 nM.

Turning to B16, the “TDCC Jeko1 EC50” value came out at 0.015 nM, the “TDCC MOLP-8 EC50” value turned out to be 0.0025 nM and the “TDCC OPM-2 EC50” value was found to be 0.0069 nM.

Consider B17, for which the “TDCC Jeko1 EC50” value stood at 0.01 nM, the “TDCC MOLP-8 EC50” value came to 0.0025 nM and the “TDCC OPM-2 EC50” value was determined as 0.0073 nM.

As to B24, the “TDCC Jeko1 EC50” value was 0.0056 nM, the “TDCC MOLP-8 EC50” value was 0.0015 nM and the “TDCC OPM-2 EC50” value is 0.0036 nM.

With B21, the “TDCC Jeko1 EC50” value worked out at 0.0053 nM, the “TDCC MOLP-8 EC50” value was 0.0015 nM and the “TDCC OPM-2 EC50” value turned out to be 0.0044 nM.

With B25, the “TDCC Jeko1 EC50” value was found to be 0.012 nM, the “TDCC MOLP-8 EC50” value was found to be 0.004 nM and the “TDCC OPM-2 EC50” value is 0.0071 nM.

The target is the same in a further assay. The assay can be described thus: cell-based or functional assay. The source holds these as a separate data set.
Turning to B26, the TDCC Jeko1 EC50 worked out at 0.32 nM, the TDCC MOLP-8 EC50 was 0.2 nM and the TDCC OPM-2 EC50 worked out at 0.16 nM.

The next assay has as its target T2, human BCMA protein. Description: affinity of purified protein to human BCMA protein, method not stated.
Molecule B22 gave a dissociation constant (Kd) of 6 nM.

B23 gave a Kd of 5 nM.

B24 gave a Kd of 3 nM.

B25 yielded a Kd of 7 nM.

The next assay concerns the target T2, human BCMA protein. The assay can be described thus: affinity to human BCMA protein, method not stated.
B1 came in with a Kd of 5.26 nM.

B2 gave a dissociation constant (Kd) of 34.4 nM.

B3 displayed a Kd of 6.53 nM.

As to B4, the dissociation constant (Kd) stood at 20.5 nM.

Molecule B5 showed a Kd of 7.12 nM.

For the molecule B6, the Kd came out at 6.73 nM.

Regarding B7, the Kd was 6.31 nM.

Regarding B8, binding was put at a Kd of 18 nM.

Molecule B9 had a dissociation constant Kd of 23.3 nM.

On to B10, for which the equilibrium dissociation constant (Kd) was 35.6 nM.

Consider B11, for which the Kd came to 19.6 nM.

For B12, the equilibrium dissociation constant (Kd) came out at 6.77 nM.

In the case of B13, the affinity, expressed as Kd, was 2.86 nM.

In turn, B14 displayed a Kd of 6.83 nM.

On to B15, for which the equilibrium dissociation constant (Kd) is 7.5 nM.

As for B16, the Kd is 6.27 nM.

Regarding B17, binding was characterised by a dissociation constant (Kd) of 6.75 nM.

The molecule B18 came in with a Kd of 27.5 nM.

Molecule B19 registered a Kd of 31.1 nM.

Turning to B20, the dissociation constant (Kd) was determined as 19.3 nM.

B21: the equilibrium dissociation constant (Kd) is 4.18 nM.

As usually defined, the Kd is the equilibrium constant for the complex coming apart. Low values mean tighter binding, high ones weaker binding.
